# Assay results from patent US6420157B1, “Zymogen activation system” (Ortho-McNeil Pharmaceutical, Inc., priority 1999, dated 2002).
# B1: PFEK-MH2-6XHIS: catalytic domain of human protease MH2 in the PFEK1-6XHIS-TAG activation construct (SEQ.ID.NO.:54), EK-activated (protein)
# chain: MDSKGSSQKSRLLLLLVVSNLLLCQGVVSDYKDDDDVDAAALAAPFDDDDKIVGGYNCLEPHSQPWQAALVMENELFCSGVLVHPQWVLSAAHCFQNSYTIGLGLHSLEADQEPGSQMVEASLSVRHPEYNRPLLANDLMLIKLDESVSESDTIRSISIASQCPTAGNSCLVSGWGLLANGRMPTVLQCVNVSVVSEEVCSKLYDPLYHPSMFCAGGGHDQKDSCNGDSGGPLICNGYLQGLVSFGKAPCGQVGVPGVYTNLCKFTEWIEKTVQASSRHHHHHH
# Legend:
# Assay type in all cases: biochemical
# Settings in all cases: EK-activated protease; substrate 500 uM; pH 7.8; 37° C.; 120 minutes
# [1] = Chromogenic amidolytic assay, release of pNA from H-D-Lys(CBO)-Pro-Arg-pNA
# Method: (§1) Cells were lysed on ice in 20 mM Tris (pH7.4), 150 mM NaCl, 1% Triton X-100, 1 mM EDTA, 1 mM EGTA, 1 mM PMSF, leupeptin (1 μg/ml), and pepstatin (1 μg/ml). Cell lysates were mixed with anti-FLAG M2 affinity gel (Eastman Kodak Co., New Haven, Conn.) and bound at 4° C. for 3 hours with gentle rotation. The zymogen-bound resin was washed 3 times with TBS buffer (50 mM Tris-HCl, 150 mM NaCl at a final pH of 7.5), and eluted by competition with FLAG peptide (100 μg/ml) in TBS buffer. The eluted zymogen was dialyzed overnight against TBS in Spectra/Por membrane (MWCO: 12,000-14,000) (Spectra Medical Industries, Inc., Huston, Tex.). […] Eluted protein concentration was determined by a Micro BCA Kit (Pierce, Rockford, Ill.) using bovine serum albumin as a standard. Amidolytic activities of the activated protease was monitored by release of para-nitroaniline (pNA) from the synthetic substrates indicated in Table 2. […] Release of pNA was measured over 120 minutes at 37° C. on a micro-plate reader (Molecular Devices, Menlo Park, Calif.) with a 405 nm absorbance filter. The initial reaction rates (Vmax, mOD/min) were determined from plots of absorbance versus time using Softmax (Molecular Devices, Menlo Park, Calif.). […] No measurable chromogenic amidolytic activity was detected with the purified unactivated zymogens. […]
# [2] = Chromogenic amidolytic assay, release of pNA from H-D-Val-Leu-Lys-pNA
# Method: as §1
# [3] = Chromogenic amidolytic assay, release of pNA from H-D-Pro-HHT-Arg-pNA
# Method: as §1
# [4] = Chromogenic amidolytic assay, release of pNA from H-DL-Val-Leu-Arg-pNA
# Method: as §1
molecule,measurement,setting,value
B1,"specific activity, H-D-Lys(CBO)-Pro-Arg-pNA",[1],0.893 nmole pNA produced /min/ug protein
same,"specific activity, H-D-Val-Leu-Lys-pNA",[2],0.121 nmole pNA produced /min/ug protein
same,"specific activity, H-D-Pro-HHT-Arg-pNA",[3],0.052 nmole pNA produced /min/ug protein
same,"specific activity, H-DL-Val-Leu-Arg-pNA",[4],0.058 nmole pNA produced /min/ug protein
